This is an account of results in article PMC4683259.

The target of assay [1] is KV10.1 voltage-gated potassium channel, full-length form (E100) (human) (UniProt O95259).
Assay [2] shares this target. This is another data set of the same source.
Assay [3] has the same target. This is another data set of the same source.

Chain of UniProt O95259 (O95259 whole entry): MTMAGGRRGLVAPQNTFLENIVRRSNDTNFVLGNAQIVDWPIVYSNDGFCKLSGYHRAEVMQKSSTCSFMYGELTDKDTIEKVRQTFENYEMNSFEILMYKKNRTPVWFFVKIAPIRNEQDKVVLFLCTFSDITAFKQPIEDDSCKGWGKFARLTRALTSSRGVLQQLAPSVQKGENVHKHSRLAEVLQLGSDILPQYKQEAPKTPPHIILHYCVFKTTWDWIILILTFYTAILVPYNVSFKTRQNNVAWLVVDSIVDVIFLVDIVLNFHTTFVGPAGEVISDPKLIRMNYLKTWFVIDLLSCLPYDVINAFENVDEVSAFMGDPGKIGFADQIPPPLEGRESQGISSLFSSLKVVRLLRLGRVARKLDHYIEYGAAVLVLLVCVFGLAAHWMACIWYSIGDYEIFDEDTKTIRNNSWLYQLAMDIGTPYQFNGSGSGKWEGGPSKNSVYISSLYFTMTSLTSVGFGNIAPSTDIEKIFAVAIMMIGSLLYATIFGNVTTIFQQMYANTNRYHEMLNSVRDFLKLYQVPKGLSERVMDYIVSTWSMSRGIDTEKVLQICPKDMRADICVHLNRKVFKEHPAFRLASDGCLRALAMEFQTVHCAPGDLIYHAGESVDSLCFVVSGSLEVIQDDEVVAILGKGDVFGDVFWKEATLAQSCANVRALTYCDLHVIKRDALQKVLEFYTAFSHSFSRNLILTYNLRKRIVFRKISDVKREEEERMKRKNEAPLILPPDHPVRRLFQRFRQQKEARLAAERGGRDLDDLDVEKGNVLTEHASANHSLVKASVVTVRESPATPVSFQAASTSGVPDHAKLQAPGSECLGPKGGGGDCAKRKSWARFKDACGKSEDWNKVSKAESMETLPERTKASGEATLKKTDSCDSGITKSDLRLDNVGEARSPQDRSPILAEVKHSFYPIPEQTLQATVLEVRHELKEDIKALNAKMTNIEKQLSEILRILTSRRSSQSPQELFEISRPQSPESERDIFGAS

“E70^L556YmVenus (TCC-defective E70 fused to mVenus) (natural protein)” showed a reduction of KV10.1 current density at +80 mV, whole-cell patch clamp, HEK-KV10.1 cells transfected with E70^L556YmVenus in assay [1] of 45.3%.

In assay [1], “E65^L405YmVenus (TCC-defective E65 fused to mVenus) (natural protein)” gave a reduction of KV10.1 current amplitude, whole-cell patch clamp, HEK-KV10.1 cells transfected with E65^L405YmVenus (not statistically significant) of 20.8%.

As for “E70mVenus (KV10.1 splice variant E70 fused to mVenus) (natural protein)”, the reduction of KV10.1 current, whole-cell patch clamp, HEK293 cells stably expressing KV10.1 and transfected with E70mVenus (control mVenus alone) in assay [2] worked out at 53.8%. The reduction of KV10.1 current, two-electrode voltage clamp, Xenopus oocytes co-injected with E70 and KV10.1 cRNA at a 1:10 ratio (E70 from pSGEM, no mVenus) in assay [3] turned out to be 60%.

As to “E65mVenus (KV10.1 splice variant E65 fused to mVenus) (natural protein)”, the reduction of KV10.1 current, whole-cell patch clamp, HEK293 cells stably expressing KV10.1 and transfected with E65mVenus (control mVenus alone) in assay [2] worked out at 41.7%. In addition, the reduction of KV10.1 current, two-electrode voltage clamp, Xenopus oocytes co-injected with E65 and KV10.1 cRNA at a 1:10 ratio (E65 from pSGEM, no mVenus) in assay [3] is 85%.
